The source of these data is patent US20250382580A1, “COMPOSITIONS AND METHODS FOR ACCELERATED PRODUCTION OF THYMIC CELLS FROM PLURIPOTENT STEM CELLS” (The Regents of the University of Colorado, a body Corporate, priority 2022, published 2025).

In one test the test system is iPSCs. As to the kind of experiment: Influence of TGF-β signaling on TEP induction from iPSCs, flow cytometry and qPCR on day 14 (Example 2). The format is cell-based. The note with it: TGF-β signaling modulation during AFE stage (days 5-6) and VPE stage (days 7-8); flow cytometry and qPCR day 14. How it is done:
In another exemplary method, the influence of TGF-β signaling during generation of TEPs in two different stages was assessed. FIG. 4A is a schematic illustrating the timelines and culture conditions for the nine protocols performed in the present exemplary method. FIG. 2 provides a chart of agents, modulators, additives, and base mediums used in this and other exemplary methods herein.
For all nine exemplary experimental conditions, on Day 1, iPSCs were plated for differentiation in mTeSR+ supplemented with ROCKi according to the method disclosed above. […]
The 9 protocols testing the effect of TGF-β inhibition (Ly), omission, or activation (T) on TEP induction were tested and analyzed by flow cytometry and qPCR on day 14. FIG. 4B illustrates flow plot quantification of CD205^+EPCAM^+ cells from each differentiation protocol and FIGS. 4C-4E illustrate a qPCR analysis of HOXA3, KRT8, and FOXN1 gene expression in the cells from each differentiation protocol.
During the AFE stage (days 5-6) the influence of: 1) inhibition of TGF-β signaling (Ly—conditions […], 2, and 3); 2) no modulation of TGF-β signaling (conditions 4, 5, and 6); and 3) activation of TGF-β signaling (T—conditions 7, 8, and 9) was assessed. […]

In the next test the test system is iPSC-derived TEP. As to the kind of experiment: RANKL, CD40L and NOTCH agonists added in stage 4 or 5 of differentiation, flow cytometry and qPCR (Example 5). The format is cell-based. The source says:
FIG. 7 illustrates an exemplary experimental set-up in accordance with certain embodiments of the present disclosure. This experimental set-up for production of add RANKL, CD40L, and NOTCH agonists in different combinations in stage 4 or 5 of differentiation of the progenitor cells.
FIGS. 8A-8B illustrate additional stimulants used to enhance thymic cell production having improved marker representation, 8A and […] illustrate percent representative marker outcome under the varying conditions in accordance with certain embodiments of the present disclosure.
FIGS. 9A-9B illustrate exemplary results from qPCR detection of representative markers FOXN1 and MHC-II (e.g., HLA-DR) protein expression corroborated by gene expression under control and experimental conditions in accordance with certain embodiments of the present disclosure.

Take T: TGF-β activation (T), 1 ng/mL TGF-β: the “expression of TEP/TEC markers CD205 and EPCAM, VPE marker HOXA3, TEP markers KRT8 and FOXN1” value with iPSCs is recorded as “no influence”.

B1: RANKL: RANK pathway activator, ETP-derived signal (protein, UniProt O14788 140-317, looked up)
Tumor necrosis factor ligand …: IRAEKAMVDGSWLDLAKRSKLEAQPFAHLTINATDIPSGSHKVSLSSWYHDRGWAKISNMTFSNGKLIVNQDGFYYLYANICFRHHETSGDLATEYLQLMVYVTKTSIKIPSSHTLMKGGSTKYWSGNSEFHFYSINVGGFFKLRSGEEISIEVSNPSLLDPDQDATYFGAFKVRDID
As for B1, in the test with iPSC-derived TEP, the “production of FOXN1+EPCAM+ cells” value is given as “did not enhance production”.

B2: CD40L: CD40 pathway activator, ETP-derived signal (protein, UniProt P29965 113-261, looked up)
CD40 ligand, soluble form: MQKGDQNPQIAAHVISEASSKTTSVLQWAEKGYYTMSNNLVTLENGKQLTVKRQGLYYIYAQVTFCSNREASSQAPFIASLCLKSPGRFERILLRAANTHSSAKPCGQQSIHLGGVFELQPGASVFVNVTDPSQVSHGTGFTSFGLLKL
As for B2, the “production of FOXN1+EPCAM+ cells” value with iPSC-derived TEP is listed as “did not enhance production”.
